Experimental data published in publication PMC10409285 (PLOS Pathogens, 2023).
Read-outs that look alike come from different tables or passages of the source.

Assays:
[1] = target: Soluble DP4 (HLA-DPA1*01:03/DPB1*04:01) (human)
[2] = target: Soluble DRB5*01:01 (human) (UniProt P01903); assay: fluorescence polarisation
[3] = target: Soluble DRB1*15:01 (human) (UniProt P01903)
[4] = target: Soluble DRB1*15:01 (human) (UniProt P01903); assay: fluorescence polarisation
[5] = system: A549 cells; conditions: cells treated with IFN-γ and trametinib (IFN-γ 100 ng/mL; trametinib 50 ng/mL, 50 nM)
[6] = target: Soluble DP4 (HLA-DPA1*01:03/DPB1*04:01) (human); assay: fluorescence polarisation

## P4, OC43 spike 903–917 (peptide)
[1]
  IC50: < 10000 nM

## P12, OC43 spike 98–114 (peptide)
[2]
  IC50: < 1000 nM
[3]
  IC50: > 1000 nM

## P9, OC43 hemagglutinin esterase 128–142 (peptide)
[4]
  IC50: < 1000 nM
[2]
  IC50: < 1000 nM

## P14, OC43 envelope 62–78 (peptide)
[1]
  IC50: < 10000 nM

## CC(=O)Nc1cccc(-n2c(=O)n(C3CC3)c(=O)c3c(Nc4ccc(I)cc4F)n(C)c(=O)c(C)c32)c1 [trametinib]
[5]
  MHC-II expression in A549 cells: small increase

## P1, OC43 hemagglutinin esterase 259–273 (peptide)
[6]
  IC50: < 1000 nM

## P2, OC43 nucleoprotein 321–336 (peptide)
[1]
  IC50: > 10000 nM

## P7, OC43 spike 1147–1164 (peptide)
[1]
  IC50: < 10000 nM

## P6, OC43 spike 1140–1155 (peptide)
[1]
  IC50: > 10000 nM

## P3, OC43 spike 97–111 (peptide)
[1]
  IC50: < 10000 nM

## P8, OC43 hemagglutinin esterase 93–107 (peptide)
[4]
  IC50: < 1000 nM

## P10, OC43 nucleoprotein 54–68 (peptide)
[3]
  IC50: < 1000 nM

## P5, OC43 spike 760–773 (peptide)
[1]
  IC50: < 1000 nM

## P11, OC43 spike 1085–1099 (peptide)
[3]
  IC50: < 1000 nM
